In assay [1] the target is T1, FcγRIIb (UniProt P31994 46-217, limits assumed).
T1 sequence (looked up): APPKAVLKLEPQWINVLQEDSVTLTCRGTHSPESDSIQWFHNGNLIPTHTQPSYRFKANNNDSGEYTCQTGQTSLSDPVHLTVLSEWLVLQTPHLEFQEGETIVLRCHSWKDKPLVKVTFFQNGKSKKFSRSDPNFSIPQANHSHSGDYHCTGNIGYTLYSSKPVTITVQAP
Description: BLI (Octet). In general terms: In BLI a coated tip is dipped into the sample, and binding shifts an interference pattern.

Assay [2] has as its target T2, FcγRI (UniProt P12314 16-288).
T2 construct: also called CD64
Put plainly: BLI (Octet).

For assay [3], the target named is T3, C1q (UniProt P02745 23-245; P02746 28-253; P02747 29-245).
T3 construct: bought C1q coated on ELISA plates at 1 µg/ml; also called complement C1q; complement factor C1q
T3 sequence (P02745 23-245 limits assumed, chain 1 of 3): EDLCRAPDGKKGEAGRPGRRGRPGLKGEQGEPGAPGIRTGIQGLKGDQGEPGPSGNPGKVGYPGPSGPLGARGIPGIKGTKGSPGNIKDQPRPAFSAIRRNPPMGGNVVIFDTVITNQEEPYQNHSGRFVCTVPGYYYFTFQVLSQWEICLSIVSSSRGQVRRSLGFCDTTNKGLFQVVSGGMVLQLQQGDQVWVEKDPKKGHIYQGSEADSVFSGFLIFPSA
T3 sequence (P02746 28-253 limits assumed, chain 2 of 3): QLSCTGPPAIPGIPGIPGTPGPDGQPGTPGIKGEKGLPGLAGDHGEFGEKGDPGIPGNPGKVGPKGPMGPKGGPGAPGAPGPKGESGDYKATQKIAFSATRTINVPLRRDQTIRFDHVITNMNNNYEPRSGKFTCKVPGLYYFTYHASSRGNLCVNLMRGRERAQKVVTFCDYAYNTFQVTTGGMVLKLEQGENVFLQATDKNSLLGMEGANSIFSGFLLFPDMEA
T3 sequence (P02747 29-245 limits assumed, chain 3 of 3): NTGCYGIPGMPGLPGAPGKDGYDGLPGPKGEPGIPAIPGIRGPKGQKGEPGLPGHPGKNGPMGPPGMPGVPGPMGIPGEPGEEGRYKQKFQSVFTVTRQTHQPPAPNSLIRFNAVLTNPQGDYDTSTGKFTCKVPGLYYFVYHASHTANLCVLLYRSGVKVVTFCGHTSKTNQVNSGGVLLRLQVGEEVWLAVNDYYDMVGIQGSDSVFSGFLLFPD
Description: ELISA on coated C1q. On the technique in general: ELISA stands for enzyme-linked immunosorbent assay.

Assay [4] concerns the target T3, C1q. Description: ELISA on coated C1q. The source holds these as a separate data set.
Assay [5] concerns the target FcγRIIIa (UniProt P08637 17-208). Put plainly: BLI (Octet); legend: - indicates no binding. The procedure:
(§1) Binding of complement-preferential stradomers or parent stradomer G045c to FcγRI, FcγRIIb, FcγRIIIa, FcγRIIa, or FcRn was assessed. RU values of dissociation were measured by biolayer interferometry using a ForteBio Octet instrument. His-tagged receptor proteins were bound to the sensor tip in 1× kinetic analysis buffer from ForteBio after which the on rate of the receptor/protein was measured by transferring the sensor tip to a 1× kinetics buffer containing the purified stradomer of choice. Off rate was measured by transferring the sensor tip to a 1× kinetics buffer, and RU value was calculated from the measured maximum binding using the ForteBio software. Biolayer interferometry detects the binding between a ligand immobilized on the biosensor tip surface and an analyte in solution. When binding occurs it produces an increase in optical thickness at the biosensor tip, which results in a wavelength shift (detected as a response unit of “RU”). The maximum binding level (RU max) is the maximum possible amount of sample binding at equilibrium that saturates the amount of ligand on the sensor surface. The RU 300 is the residual sample binding after 300 seconds of dissociation and is useful to characterize the rate of dissociation of the test article from the test ligand.

For assay [6], the target named is T2, FcγRI. Description: BLI (Octet); legend: - indicates no binding. The procedure: as §1
The target of assay [7] is T3, C1q. Put plainly: ELISA on coated C1q. The procedure: For C1q binding, 96 well plates were coated with C1q (Sigma Cat #: C1740 1 μg/ml) overnight in PBS. After coating, plates were washed 3 times with standard wash buffer (iX PBS+0.05% Tween 20) and blocked with blocking buffer (1% BSA+1× PBS+0.05% Tween 20) for 2 hours at RT. Following blocking, plates were incubated with compound diluted in blocking buffer 100 μL/well and washed 3 times with standard washing buffer. C1q-bound compound was detected by incubation with 1:5000 biotinylated mouse anti-human IgG1(Cat #555869, BD Biosciences) and Streptavidin-HRP (Cat #: 7100-05 Southern Biotech) (100 μl/well) for 1 hour at room temperature followed by washing 3 times with washing buffer, after which color was developed using the standard TMB method according to manufacturer's protocol for 15 minutes. Absorbance was read at 450 nm.
The source holds these as a separate data set.

Assay [8] deals with T1, FcγRIIb. Description: BLI (Octet). As for the experimental part:
as §1
The source holds these as a separate data set.

The target in assay [9] is T4, FcγRIIa (UniProt P12318 36-218, limits assumed).
T4 sequence (looked up): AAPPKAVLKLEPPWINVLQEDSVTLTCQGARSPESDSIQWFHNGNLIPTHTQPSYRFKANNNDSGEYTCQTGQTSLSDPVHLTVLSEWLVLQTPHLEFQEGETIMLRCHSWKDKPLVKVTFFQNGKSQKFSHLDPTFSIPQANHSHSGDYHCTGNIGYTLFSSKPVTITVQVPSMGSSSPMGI
Description: BLI (Octet); legend: - indicates no binding. As for the experimental part:
as §1

The target in assay [10] is T2, FcγRI. Put plainly: BLI (Octet). The procedure: as §1
This is another data set of the same source.

For assay [11], the target named is T5, C3 complement component (UniProt P01024 23-1663).
T5 construct: bought protein coated on ELISA plates at 1 µg/ml
Description: ELISA on coated C3.

Assay [12] has as its target T6, mouse FcγRIII (mouse, UniProt P08508 31-215, limits assumed).
T6 sequence (looked up): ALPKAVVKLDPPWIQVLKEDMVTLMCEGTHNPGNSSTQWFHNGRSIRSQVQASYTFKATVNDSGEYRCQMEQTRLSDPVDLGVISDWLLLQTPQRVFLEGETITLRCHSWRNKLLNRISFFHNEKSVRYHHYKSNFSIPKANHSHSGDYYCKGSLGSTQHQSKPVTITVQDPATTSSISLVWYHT
Put plainly: BLI (Octet), FIG. 19 bottom panels.

Assay [13] concerns the target T7, mouse FcγRIIb (mouse, UniProt P08101 30-207, limits assumed).
T7 sequence (looked up): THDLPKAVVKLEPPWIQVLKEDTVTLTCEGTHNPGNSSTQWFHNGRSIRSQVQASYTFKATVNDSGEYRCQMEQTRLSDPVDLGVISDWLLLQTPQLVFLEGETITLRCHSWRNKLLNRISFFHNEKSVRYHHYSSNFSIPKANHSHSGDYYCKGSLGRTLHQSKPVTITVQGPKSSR
Put plainly: BLI (Octet), FIG. 19 bottom panels.

In assay [14] the target is T8, mouse FcγRIV (mouse, UniProt A0A0B4J1G0 21-203).
T8 construct: not shown: any purification tag (e.g. His tag) on the soluble recombinant receptor used in biolayer interferometry; not described in the passages seen
T8 sequence: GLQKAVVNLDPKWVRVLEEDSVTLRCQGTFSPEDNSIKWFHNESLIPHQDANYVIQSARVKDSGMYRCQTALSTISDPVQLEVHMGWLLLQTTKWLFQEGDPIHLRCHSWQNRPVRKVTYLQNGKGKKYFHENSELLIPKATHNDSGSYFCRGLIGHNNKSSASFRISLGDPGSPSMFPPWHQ
Put plainly: BLI (Octet), FIG. 19 bottom panels.

Assay [15] concerns the target T1, FcγRIIb. Description: BLI (Octet); legend: - indicates no binding. The procedure:
as §1

Numbering of substitutions follows the chain as printed. Names may count otherwise. Read-outs that look alike come from different tables or passages of the source.

T2 sequence (P12314 16-288 limits assumed): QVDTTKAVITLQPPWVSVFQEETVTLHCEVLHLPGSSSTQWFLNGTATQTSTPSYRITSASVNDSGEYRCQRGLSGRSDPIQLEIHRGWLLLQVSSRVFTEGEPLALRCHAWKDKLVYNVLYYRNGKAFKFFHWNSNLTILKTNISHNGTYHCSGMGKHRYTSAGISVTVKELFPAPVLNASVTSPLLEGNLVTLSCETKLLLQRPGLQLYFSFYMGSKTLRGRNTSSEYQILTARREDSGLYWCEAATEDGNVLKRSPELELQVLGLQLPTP
Sequence of FcγRIIIa (P08637 17-208 limits assumed): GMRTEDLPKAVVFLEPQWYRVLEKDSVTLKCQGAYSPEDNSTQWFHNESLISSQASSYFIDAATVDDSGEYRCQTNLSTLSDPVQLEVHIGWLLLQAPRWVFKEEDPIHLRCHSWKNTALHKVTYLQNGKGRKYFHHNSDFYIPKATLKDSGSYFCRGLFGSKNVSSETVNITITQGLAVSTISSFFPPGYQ

B1: G999 (Fc fusion)
chain: ERKCCVECPPCPEPKSCDKTHTCPPCPAPELLRGPSVFLFPPKPKDTLMISRTPEVTCVVVDVEFEDPEVKFNWYVDGVEVHNAKTKPREEQYNSTYRVVSVLTVLHQDWLNGKEYKCKVTNKALPAPIEKTISKAKGQPREPQVYTLPPSRDELTKNQVSLTCLVKGFYPSDIAVEWESNGQPENNYKTTPPVLDSDGSFFLYSKLTVDKSRWQQGNVFSCSVMHEALHNHYTQKSLSLSPGK
notes: G019 background, G236R/S267E/H268F/S324T
As for B1, the binding result in assay [1] was “binds”; in assay [2], “binds”; in assay [3], “no binding”.

B2: G1024 (Fc fusion)
chain: B1 chain with R33G, P35D, D153E, L155M
notes: G019 background, P238D/S267E/H268F/S324T
Consider B2, for which the binding result in [4] is “no binding”.

B3: G1022 (Fc fusion)
chain: EPKSCDKTHTCPPCPAPPVAGPSVFLFPPKPKDTLMISRTPEVTCVVVDVEFEDPEVKFNWYVDGVEVHNAKTKPREEQYASTYRVVSVLTVLHQDWLNGKEYKCKVTNKALPAPIEKTISKAKGQPREPQVYTLPPSRDELTKNQVSLTCLVKGFYPSDIAVEWESNGQPENNYKTTPPVLDSDGSFFLYSKLTVDKSRWQQGNVFSCSVMHEALHNHYTQKSLSLSPGKERKCCVECPPCP
notes: G045c background, E233P/L234V/L235A/S267E/H268F/N297A/S324T, G236 deleted; leader 1-20 cleaved
Consider B3, for which the binding result in assay [5] and in assay [6] was “no binding” throughout.

B4: G1050 (Fc fusion)
chain: B3 chain with L112F
notes: G045c background, E233P/L234V/L235A/S267E/H268F/N297A/S324T/L328F, G236 deleted; leader 1-20 cleaved
As for B4, the binding result is “binds” in assay [7], “no binding” in assay [5], “no binding” in assay [6] and “binds” in assay [8].

B5: G994 (Fc fusion)
chain: EPKSCDKTHTCPPCPAPPLLRGPSVFLFPPKPKDTLMISRTPEVTCVVVDVEFEDPEVKFNWYVDGVEVHNAKTKPREEQYNSTYRVVSVLTVLHQDWLNGKEYKCKVTNKALPAPIEKTISKAKGQPREPQVYTLPPSRDELTKNQVSLTCLVKGFYPSDIAVEWESNGQPENNYKTTPPVLDSDGSFFLYSKLTVDKSRWQQGNVFSCSVMHEALHNHYTQKSLSLSPGKERKCCVECPPCP
notes: G045c background, E233P/G236R/S267E/H268F/S324T; leader 1-20 cleaved; also called G994 (DEL); G994 (EEM)
Take B5: the binding result in assay [7] is given as “binds”; in assay [5] it was “no binding”; in assay [9] it was “no binding”; in assay [8], “binds”; in assay [10], “binds”.

B6: G996 (Fc fusion)
chain: B5 chain with P18E
notes: G045c background, G236R/S267E/H268F/S324T; leader 1-20 cleaved
As to B6, the binding result is “no binding (tested: 100 µg/ml top concentration)” in [11]; “binds” in assay [7]; “no binding” in assay [5]; “binds” in assay [8]; “binds” in assay [10]; “no binding” in [12]. Moreover, the binding result in assay [13] and in assay [14] was “no binding” in each case.

B7: G1033 (Fc fusion)
chain: B5 chain with P18E, L19A, L20A, R21G, N82A
notes: G045c background, L234A/L235A/S267E/H268F/N297A/S324T; leader 1-20 cleaved; also called G1033 (DEL); G1033 (EEM)
For B7, the binding result in assay [7] is reported as “binds”; in assay [15], “no binding”; in assay [5], “no binding”; in assay [10], “binds”.

B8: G1047 (Fc fusion)
chain: B5 chain with P18E, R21G, P23D, L113F
For B8, the binding result in assay [1] and in [2] was “binds” in each case.

B9: G1031 (Fc fusion)
chain: B5 chain with D50A, N82A
For B9, in [4], the binding result is on record as “no binding”.

B10: G998 (Fc fusion)
chain: B5 chain with P18E, R21G, N82A
notes: G045c background, S267E/H268F/N297A/S324T; leader 1-20 cleaved; also called G998 (DEL); G998 (EEM)
For B10, the binding result in assay [7] is “binds”; in [5], “no binding”; in assay [9], “no binding”; in [8], “binds”; in assay [10], “binds”.

B11: G1045 (Fc fusion)
chain: B5 chain with P18E, R21G, P23D, D50P
For B11, the binding result in assay [2] is recorded as “binds”; in [4], “no binding”.

The values above are taken from patent US20250011433A1 (GLIKNIK, published 2025).
